Consider ten molecules from patent US20250026838A1 (TRUEBINDING, published 2025).

Assay [1] deals with T1, Human Galectin-3 (Gal3) protein (human, UniProt P17931 1-250).
T1 construct: also called hGal3; rhGal-3
The assay can be described thus: competition ELISA, hGal3 coated; competitor: biotinylated aggregated alpha-synuclein.

Assay [2] addresses T1, Human Galectin-3 (Gal3) protein. The assay can be described thus: competition ELISA, hGal3 coated; competitor: biotinylated hTGFβR2.

Positions count from the first letter of the chain named. Names may count otherwise. A value given as a limit tells only on which side of the number the result lay.

T1 sequence (P17931 whole entry): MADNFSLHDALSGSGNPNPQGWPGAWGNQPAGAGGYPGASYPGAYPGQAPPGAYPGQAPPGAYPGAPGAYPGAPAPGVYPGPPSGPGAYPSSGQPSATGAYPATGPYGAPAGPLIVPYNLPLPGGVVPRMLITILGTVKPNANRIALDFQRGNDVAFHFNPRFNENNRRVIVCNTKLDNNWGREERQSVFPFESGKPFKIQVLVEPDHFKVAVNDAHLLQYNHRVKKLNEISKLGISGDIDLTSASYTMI

B1: TB001 (antibody, V domains shown)
VH: QVQLVQSGSELKKPGASVKVSCKASGYTFTNYGMNWVRQAPGQGLKWMGWINTNTGEPTYVEEFTGRFVFSLETSVSTAYLQISSLKAEDTAVYFCAPYDNFFAYWGQGTTVTVSS
VL: DIVLTQSPLSLPVTPGEPASISCRSSKSLLYKDGKTYLNWFLQKPGQSPQLLIYLMSTHASGVPDRFSGSGSGTDFTLKISRVEAEDVGVYYCQQLVDYPLTFGGGTKLEIK
notes: also called hTB001; IMT001-4-HCLC (TB001)
Consider B1, for which, in assay [1], the blocking efficacy was > 70%.

B2: 846T.14A2-hIgG4(S338P) (antibody, V domains shown)
VH: QIQLVQSGPELKKPGETVKISCKASGYTFTNYGMNWVKQAPGKGLKWMGWINTYTGEPTYAGDLKGRFAFSLETSASTAYLQINNLKNEDTATYFCVRYTMDYWGQGTSVTVSS
VL: QAVVTQESALTTSPGETVTLTCRSSTGAVTTSNYANWVQEKPDHLFTGLIGGINNRVPGVPARFSGSLIGDKAALTITGAQTEDEAIYFCALWYSNHWVFGGGTKLTVL
notes: also called F846TC.14A2; QC200122
Turning to B2, in assay [1], the blocking efficacy is > 70%.

B3: 14H10.2C9-hIgG4 (S228P) (antibody, V domains shown)
VH: QIQLVQSGPELKKPGETVKISCKASGYTFTTYGMGWVKQAPGKDLKWMGWINTYSGVPTYADDFKGRFAFSLETSASTAYLQISNLKNEDTATYFCSTPYEYDGAYWGQGTLVTVSA
VL: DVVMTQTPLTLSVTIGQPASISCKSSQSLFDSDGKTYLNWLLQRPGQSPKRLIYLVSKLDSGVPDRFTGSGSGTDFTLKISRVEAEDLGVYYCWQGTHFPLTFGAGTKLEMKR
notes: also called QC200137; IMTAB0172
On to B3, for which the blocking efficacy in assay [2] is > 90%; in assay [1], > 70%.

B4: 846.1F5-hIgG4(S228P) (antibody, V domains shown)
VH: QIQLVQSGPELKKPGETVKISCKASGYTFTNYGMNWVKQAPGKGLKWMGWINTYTGEPSYADDFKGRFAFSLETSASTAYLQINNLKNEDMATYFCARWGGYDGDYYAMDYWGQGTSVTVSS
VL: NIMMTQSPSSLAVSAGEKVTMSCKSSQSVLYSSNQKNYLAWYQQKPGQSPKLLIYWASTRESGVPDRFTGSGSGTDFTLTISSVQPEDLAVYYCHQYLSSLTFGAGTKLELK
notes: also called F846C.1F5; QC200110
On to B4, for which the blocking efficacy in assay [1] was > 70%.

B5: 846.1H12-hIgG4(S228P) (antibody, V domains shown)
VH: B4 VH with Y32F, M91I, D103A
VL: B4 VL with E17Q, N34S, T69S
notes: also called F846C.1H12; QC200172 IMTAB0196
Turning to B5, the blocking efficacy in assay [2] is > 90%.

B6: 846T.16B5-hIgG4(S228P) (antibody, V domains shown)
VH: B4 VH with S59A
VL: B4 VL with P86A
notes: also called F846T.16B5; F846TC.16B5
Take B6: the blocking efficacy in assay [1] is > 70%.

B7: 20D11.2C6-hIgG4(S228P) (antibody, V domains shown)
VH: EVQLQQSGPELVKPGASVKISCKASGYTFTDFYINWVKQSHGKSLEWIGDINPKNGGINYNPKFKIKATLTVDKSSSTSYMDLRGLTSEDSAVYYCTSGYGFPYWGQGTLVTVSA
VL: DIQMNQSPSSLSASLGDTITITCRASQNIYIWLSWYQQKPGNIPKLLIYKASNLHTGVPSRFSGSGSGTDFTLTISTLQPEDIATYFCLQGQSYPLTFGAGTKLEMKR
notes: also called QC200083
With B7, in assay [1], the blocking efficacy was > 70%.

B8: 15G7.2A7-hIgG4(S228P) (antibody, V domains shown)
VH: B7 VH with F32Y, I34M, K54N, I58T, P62Q, I66G, S79A, D82E, G85S
VL: DIQMNQSPSSLSASLGDTISITCRASQNINIWLSWYQQKPGNIPQLLIYKASNLHTGVPSRFSGSGSGTDFTLTISSLQPEDIATYYCLQGQSYPLTFGAGTKLVMK
notes: also called QC200074
In the case of B8, in assay [1], the blocking efficacy is > 70%.

B9: 84712F12-hIgG4(S288P) (antibody, V domains shown)
VH: QIQLVQSGPELKKPGETVKISCKASGYTFTNYGMNWVKQAPGKGLKWMGWINTYTGEPTYVDDFKGRFAFSLETSASTAYLRINNLKNEDTATYFCAKFGNYVGAMDYWGQGTSVTVSS
VL: DIQVIQSPSSLSASLGDTITITCHASQNINVWLSWYQQKPGNIPKLLIYKASNLHTGVPSRFSGSGSGTGFTLTISSLQPEDIATYYCQQGQSYPYTFGGGTKLELK
notes: also called 847.12F12-hIgG4 (S228P); F847C.12F12
In the case of B9, the blocking efficacy in assay [1] is > 70%.

B10: TB006 (antibody, human IgG4 S228P, kappa, V domains shown)
VH: QVQLVQSGAEVKKPGASVKVSCKASGYSFTNYYMHWVRQAPGQRLEWMGWIYPGSGNTNYNEKFQGRVTITADTSASTAYMELSSLRSEDTAVYYCSTAPGGFDVWGQGTTVTVSS
VL: DIVMTQTPLSLSVTPGQPASISCKSSKSLLHSDGITYLYWYLQKPGQSPQLLIYRMSNLASGVPDRFSGSGSGTDFTLKISRVEAEDVGVYYCAQMLEFPLTFGQGTKLEIKR
notes: also called hTB006; hTB006Ab
Consider B10, for which the blocking efficacy in assay [2] is > 90%; in assay [1], > 70%.
